For the assay, the target named is T1, 6xHis-SUMO-tagged MYO18A motor domain (aa 408-1,242) (UniProt Q92614 408-1242).
T1 sequence (looked up): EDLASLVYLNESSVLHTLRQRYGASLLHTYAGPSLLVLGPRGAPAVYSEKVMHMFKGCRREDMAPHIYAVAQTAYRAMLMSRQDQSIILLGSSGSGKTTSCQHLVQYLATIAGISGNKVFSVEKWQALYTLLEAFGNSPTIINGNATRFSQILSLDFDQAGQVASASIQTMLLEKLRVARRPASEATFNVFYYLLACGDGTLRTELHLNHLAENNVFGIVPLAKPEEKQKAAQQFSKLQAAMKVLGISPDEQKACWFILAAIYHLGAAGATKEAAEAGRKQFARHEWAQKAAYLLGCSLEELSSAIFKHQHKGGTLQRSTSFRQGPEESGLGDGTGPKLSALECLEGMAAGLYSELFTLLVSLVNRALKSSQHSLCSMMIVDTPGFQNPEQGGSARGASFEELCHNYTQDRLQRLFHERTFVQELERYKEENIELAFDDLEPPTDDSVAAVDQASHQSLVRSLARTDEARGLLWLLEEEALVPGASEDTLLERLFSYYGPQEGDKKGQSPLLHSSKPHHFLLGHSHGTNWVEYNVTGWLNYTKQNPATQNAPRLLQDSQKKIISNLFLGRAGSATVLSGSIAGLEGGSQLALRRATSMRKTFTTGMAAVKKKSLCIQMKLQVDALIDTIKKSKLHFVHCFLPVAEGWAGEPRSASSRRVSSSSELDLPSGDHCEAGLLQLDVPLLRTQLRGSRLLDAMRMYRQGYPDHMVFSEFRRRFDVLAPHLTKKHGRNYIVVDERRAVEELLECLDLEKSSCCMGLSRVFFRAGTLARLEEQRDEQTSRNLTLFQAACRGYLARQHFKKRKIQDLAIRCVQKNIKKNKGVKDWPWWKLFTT
Briefly: pull-down.

B1: GOLPH3 DQ-DVQ phosphomimetic mutant, purified, bacterially expressed (natural protein, UniProt Q9H4A6 1-298, looked up)
chain: MTSLTQRSSGLVQRRTEASRNAADKERAAGGGAGSSEDDAQSRRDEQDDDDKGDSKETRLTLMEEVLLLGLKDREGYTSFWNDCISSGLRGCMLIELALRGRLQLEACGMRRKSLLTRKVICKSDAPTGDVLLDEALKHVKEDQPPEDVQNWIELLSGETWNPLKLHYQLRNVRERLAKNLVEKGVLTTEKQNFLLFDMTTHPLTNNNIKQRLIKKVQEAVLDKWVNDPHRMDRRLLALIYLAHASDVLENAFAPLLDEQYDLATKRVRQLLDLDPEVECLKANTNEVLWAVVAAFTK
Take B1: the “fold of interaction versus WT” value was 2.2 fold.

B2: GOLPH3 EQ-EVQ phosphomimetic mutant, purified, bacterially expressed (natural protein, UniProt Q9H4A6 1-298, looked up)
chain: MTSLTQRSSGLVQRRTEASRNAADKERAAGGGAGSSEDDAQSRRDEQDDDDKGDSKETRLTLMEEVLLLGLKDREGYTSFWNDCISSGLRGCMLIELALRGRLQLEACGMRRKSLLTRKVICKSDAPTGDVLLDEALKHVKEEQPPEEVQNWIELLSGETWNPLKLHYQLRNVRERLAKNLVEKGVLTTEKQNFLLFDMTTHPLTNNNIKQRLIKKVQEAVLDKWVNDPHRMDRRLLALIYLAHASDVLENAFAPLLDEQYDLATKRVRQLLDLDPEVECLKANTNEVLWAVVAAFTK
With B2, the “fold of interaction versus WT” value was determined as 1.9 fold.

The values are drawn from PMC4018323 (Cell, 2014).
